Publication doi:10.1101/2020.02.21.960245 (bioRxiv, 2020)
Like-named read-outs stand apart in the source and are kept apart here.

T1: untagged Rec114 (S. cerevisiae, UniProt P32841 1-428)
T1 sequence: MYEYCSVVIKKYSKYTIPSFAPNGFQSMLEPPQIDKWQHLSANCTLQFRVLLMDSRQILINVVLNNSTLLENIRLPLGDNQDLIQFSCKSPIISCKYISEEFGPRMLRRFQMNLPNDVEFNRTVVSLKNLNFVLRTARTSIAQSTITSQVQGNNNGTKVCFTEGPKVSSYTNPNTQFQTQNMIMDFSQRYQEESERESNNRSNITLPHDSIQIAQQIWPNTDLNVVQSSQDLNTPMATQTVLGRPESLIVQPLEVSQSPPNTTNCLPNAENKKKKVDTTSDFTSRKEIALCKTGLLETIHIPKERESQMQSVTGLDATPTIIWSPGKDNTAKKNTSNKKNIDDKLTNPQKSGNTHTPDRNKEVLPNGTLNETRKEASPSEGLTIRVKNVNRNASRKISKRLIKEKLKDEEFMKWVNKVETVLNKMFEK

T2: Rec114(375-428) (S. cerevisiae, UniProt P32841 375-428)
T2 sequence: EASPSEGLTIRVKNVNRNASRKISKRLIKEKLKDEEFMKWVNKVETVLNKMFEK

B1: HisFlagRec114 (natural protein)
chain: T1 sequence
B2: coiled-coil domain of Mer2 (residues 77-227) (domain or fragment)
chain: IKVLNENSKTLCKSLNKFNQLLEQDAATNGNVKTLIKDLASQIENQLDKVSTAMLSKGDEKKTKSDSSYRQVLVEEISRYNSKITRHVTNKQHETEKSMRCTQEMLFNVGSQLEDVHKVLLSLSKDMHSLQTRQTALEMAFREKADHAYDR
B3: MBPMei4 (natural protein)
chain: MSRGKLEDMEQKETSEVDWIICFALIQSRNPTLWKRALSRKKGDVEDVGALKSEKNLKINPRENSKHIYKWVAPFENGFLNNKSLFAHLEPIYNFLCQNKYKSFEDAVGLKELQSFSKDVSTADINNWFLPRYKILLKILSLKTKEIDFRGLSQVFQTLQILLVSHYSHRIDSDSSFKRTLIDVHVFNFIAKFLFNRILLKKNQNDPKWLQNFYDQGDGKHLCDKVDYKRLCSLHFTLIYSIINIQLIKIKTNQTFEPQILKYVSVLKLIEHILIIIESLIHVLIRFVSKHKLICINRKKAYCRVYLERELSLKKTYLKNFYSVISGVPEKELGGLLKILKIVILSLLETFESIEWQHLKPFLEKFPAHEISLQKKRKYIQAALLITAERNLIARFRLSRWFNETENI
B4: untagged Mei4 (natural protein)
chain: B3 chain
B5: untagged wild-type Rec114(325-428) (domain or fragment)
chain: PGKDNTAKKNTSNKKNIDDKLTNPQKSGNTHTPDRNKEVLPNGTLNETRKEASPSEGLTIRVKNVNRNASRKISKRLIKEKLKDEEFMKWVNKVETVLNKMFEK
B6: untagged Mer2 (natural protein)
chain: MVARGRTDEISTDVSEANSEHSLMITETSSPFRSIFSHSGKVANAGALEESDKQILEWAGKLELESMELRENSDKLIKVLNENSKTLCKSLNKFNQLLEQDAATNGNVKTLIKDLASQIENQLDKVSTAMLSKGDEKKTKSDSSYRQVLVEEISRYNSKITRHVTNKQHETEKSMRCTQEMLFNVGSQLEDVHKVLLSLSKDMHSLQTRQTALEMAFREKADHAYDRPDVSLNGTTLLHDMDEAHDKQRKKSVPPPRMMVTRSMKRRRSSSPTLSTSQNHNSEDNDDASHRLKRAARTIIPWEELRPDTLESEL
B7: Mei4(1-43) (domain or fragment)
chain: MSRGKLEDMEQKETSEVDWIICFALIQSRNPTLWKRALSRKKG

How the values were obtained:
cross-linking = molecular target: the molecule itself; assay: cross-linking
SEC-MALS [1] = molecular target: the molecule itself; assay: SEC-MALS
HisFlagRec114 = molecular target: B1; assay: SEC-MALS
untagged Rec114 = molecular target: T1, untagged Rec114; assay: SEC-MALS
SEC-MALS [2] = molecular target: the molecule itself; assay: SEC-MALS; remark: listed apart in the source
Rec114(375-428) = molecular target: T2, Rec114(375-428); assay: SEC-MALS

Binder: B1
binding result (cross-linking): binds

Binder: B2
stoichiometry N (SEC-MALS [1]): 4

Binder: B3
stoichiometry N (HisFlagRec114): 2 Rec114 per Mei4

Binder: B4
stoichiometry N (untagged Rec114): 2 Rec114 per Mei4

Binder: B5
stoichiometry N (SEC-MALS [1]): 2

Binder: B6
stoichiometry N (SEC-MALS [2]): 4

Binder: B7
stoichiometry N (Rec114(375-428)): 2 Rec114 per Mei4
